Measured values as given in patent publication US12007398.

B1: purified anti-CD3 homodimer (product-related impurity isolated from the αCD20/αCD3 TDB purification process) (antibody, V domains shown)
VH: EVQLVQSGAEVKKPGASVKVSCKASGYTFTNYYIHWVRQAPGQGLEWIGWIYPGDGNTKYNEKFKGRATLTADTSTSTAYLELSSLRSEDTAVYYCARDSYSNYYFDYWGQGTLVTVSS
VL: DIVMTQSPDSLAVSLGERATINCKSSQSLLNSRTRKNYLAWYQQKPGQPPKLLIYWASTRESGVPDRFSGSGSGTDFTLTISSLQAEDVAVYYCTQSFILRTFGQGTKVEIK
B2: αCD20/αCD3 TDB (T cell dependent bispecific antibody; anti-CD20 Mab2 / anti-CD3 Mab1) (bispecific antibody, V domains shown)
VH 1: EVQLVESGGGLVQPGGSLRLSCAASGYTFTSYNMHWVRQAPGKGLEWVGAIYPGNGDTSYNQKFKGRFTISVDKSKNTLYLQMNSLRAEDTAVYYCARVVYYSNSYWYFDVWGQGTLVTVSS
VL 1: DIQMTQSPSSLSASVGDRVTITCRASSSVSYMHWYQQKPGKAPKPLIYAPSNLASGVPSRFSGSGSGTDFTLTISSLQPEDFATYYCQQWSFNPPTFGQGTKVEIKR
VH 2: B1 VH
VL 2: B1 VL

How the values were obtained:
[1] = biological target: T1, CD3e subunit of the T cell receptor on human T cells (human, UniProt P07766 23-207); assay: cell-based or functional assay
[2] = biological target: T1, CD3e subunit of the T cell receptor on …; assay: cell-based or functional assay; remark: listed apart in the source

T1 sequence (P07766 23-207): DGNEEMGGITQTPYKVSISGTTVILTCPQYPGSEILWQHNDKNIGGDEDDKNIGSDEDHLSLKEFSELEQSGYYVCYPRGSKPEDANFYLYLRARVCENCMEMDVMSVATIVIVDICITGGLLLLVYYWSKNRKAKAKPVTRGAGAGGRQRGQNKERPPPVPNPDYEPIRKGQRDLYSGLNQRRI

Binder	EC50 of NFκB-luciferase reporter activation, Jurkat/NFκBLuc cells; in absence of target cells [1] [µg/mL]	EC50 of T cell activation (CD69+/CD25+), human PBMC Donor 1; column head: in absence of target cells [1] [µg/mL]	EC50 of T cell activation (CD69+/CD25+), human PBMC Donor 2; column head: in absence of target cells [1] [µg/mL]	luciferase activity of Jurkat/NFκBLuciferase clone 2 in the presence of a CD20 expressing target cell line, relative to anti-CD3 homodimer [2] [fold]	EC50 of NFκB-luciferase reporter activation, Jurkat/NFκBLuc cells; in presence of target cells [1] [µg/mL]	EC50 of T cell activation (CD69+/CD25+), human PBMC Donor 1; in presence of target cells [1] [µg/mL]	EC50 of T cell activation (CD69+/CD25+), human PBMC Donor 2; in presence of target cells [1] [µg/mL]
B1	0.21	0.526	0.169				
B2				1000	0.0013	0.0055	0.0044
